Laboratory results taken from patent US12258605B2, “Alkane oxidation by modified hydroxylases” (The California Institute of Technology, priority 2005, dated 2025).

B1: 35-E11: P450 BM-3 variant, SEQ ID NO:7: 53-5H substitutions plus E464G and I710T (protein)
chain: TIKEMPQPKTFGELKNLPLLNTDKPVQALMKIADELGEIFKFEAPGCVTRYLSSQRLIKEACDESRFDKNLSQALKFFRDFSGDGLFTSWTHEINWKKAHNILLPSFSQQAMKGYHAMMVDIAVQLVQKWERLNADEHIEVSEDMTRLTLDTIGLCGFNYRFNSFYRDQPHPFIISMVRALDEVMNKLQRANPDDPAYDENKRQCQEDIKVMNDLVDKIIADRKARGEQSDDLLTQMLNGKDPETGEPLDDGNISYQIITFLIAGHETTSGLLSFALYFLVKNPHVLQKVVEEAARVLVDPVPSYKQVKQLKYVGMVLNEALRLWPTFPAFSLYAKEDTVLGGEYPLEKGDEVMVLIPQLHRDKTIWGDDVEEFRPERFENPSAIPQHAFKPFGNGQRACIGQQFALHEATLVLGMMLKHFDFEDHTNYELDIKETLTLKPEGFVVKAKSKKIPLGGIPSPSTGQSAKKVRKKAENAHNTPLLVLYGSNMGTAEGTARDLADIAMSKGFAPQVATLDSHAGNLPREGAVLIVTASYNGHPPDNAKQFVDWLDQASADEVKGVRYSVFGCGDKNWATTYQKVPAFIDETLAAKGAENIADRGEADASDDFEGTYEEWREHMWSDVAAYFNLDIENSEDNKSTLSLQFVDSAADMPLAKMHGAFSTNVVASKELQQPGSARSTRHLEIELPKEASYQEGDHLGVIPRNYEGTVNRVTARFGLDASQQIRLEAEEEKLAHLPLAKTVSVEELLQYVELQDPVTRTQLRAMAAKTVCPPHKVELEALLEKQAYKEQVLAKRLTMLELLEKYPACEMKFSEFIALLPSIRPRYYSISSSPRVDEKQASITVSVVSGEAWSGYGEYKGIASNYLAELQEGDTITCFISTPQSEFTLPKDPETPLIMVGPGTGVAPFRGFVQARKQLKEQGQSLGEAHLYFGCRSPHEDYLYQEELENAQSEGIITLHTAFSRMPNQPKTYVQHVMEQDGKKLIELLDQGAHFYICGDGSQMAPAVEATLMKSYADVHQVSEADARLWLQQLEEKGRYAKDVWAG
modifications: mutant P450 35-E11 protein sequence
B2: Wild-type BM-3: wild-type cytochrome P450 BM-3 from Bacillus megaterium, SEQ ID NO:1 (protein, listed as Bacillus megaterium)
chain: TIKEMPQPKTFGELKNLPLLNTDKPVQALMKIADELGEIFKFEAPGRVTRYLSSQRLIKEACDESRFDKNLSQALKFVRDFAGDGLFTSWTHEKNWKKAHNILLPSFSQQAMKGYHAMMVDIAVQLVQKWERLNADEHIEVPEDMTRLTLDTIGLCGFNYRFNSFYRDQPHPFITSMVRALDEAMNKLQRANPDDPAYDENKRQFQEDIKVMNDLVDKIIADRKASGEQSDDLLTHMLNGKDPETGEPLDDENIRYQIITFLIAGHETTSGLLSFALYFLVKNPHVLQKAAEEAARVLVDPVPSYKQVKQLKYVGMVLNEALRLWPTAPAFSLYAKEDTVLGGEYPLEKGDELMVLIPQLHRDKTIWGDDVEEFRPERFENPSAIPQHAFKPFGNGQRACIGQQFALHEATLVLGMMLKHFDFEDHTNYELDIKETLTLKPEGFVVKAKSKKIPLGGIPSPSTEQSAKKVRKKAENAHNTPLLVLYGSNMGTAEGTARDLADIAMSKGFAPQVATLDSHAGNLPREGAVLIVTASYNGHPPDNAKQFVDWLDQASADEVKGVRYSVFGCGDKNWATTYQKVPAFIDETLAAKGAENIADRGEADASDDFEGTYEEWREHMWSDVAAYFNLDIENSEDNKSTLSLQFVDSAADMPLAKMHGAFSTNVVASKELQQPGSARSTRHLEIELPKEASYQEGDHLGVIPRNYEGIVNRVTARFGLDASQQIRLEAEEEKLAHLPLAKTVSVEELLQYVELQDPVTRTQLRAMAAKTVCPPHKVELEALLEKQAYKEQVLAKRLTMLELLEKYPACEMKFSEFIALLPSIRPRYYSISSSPRVDEKQASITVSVVSGEAWSGYGEYKGIASNYLAELQEGDTITCFISTPQSEFTLPKDPETPLIMVGPGTGVAPFRGFVQARKQLKEQGQSLGEAHLYFGCRSPHEDYLYQEELENAQSEGIITLHTAFSRMPNQPKTYVQHVMEQDGKKLIELLDQGAHFYICGDGSQMAPAVEATLMKSYADVHQVSEADARLWLQQLEEKGRYAKDVWAG

Key:
[1] = Ethane hydroxylation to ethanol (rate, total turnover); type: biochemical
Experimental: Ethane hydroxylation by 53-5H was measured after 12-hour incubations of the enzyme in ethane-saturated buffer containing an ethanol-free NADPH regeneration system (commercial NADPH contains 2-3% ethanol). While the reaction is uncoupled to NADPH oxidation in the presence of ethane (660 min-1, see Table 2), 53-5H nevertheless consistently produces at least 50 equivalents of ethanol independent of the starting concentration of enzyme (see FIGS. 2 and 3). Over oxidation was tested by supplying ethanol as a substrate and monitoring ethanol depletion by gas chromatography and the production of acetaldehyde and acetic acid by ^13C NMR using ^13C-labeled ethanol. No (i.e. less than 10%, the detection limit of these experiments) over oxidation products were detected in these experiments (see FIG. 4). In general, the hydrophobic active sites in P450s assist in the release of singly-hydroxylated products.
Reactions on ethane were carried out similarly to those described for propane (Peters et al., J. Am. Chem. Soc. 125:13442 (2003); incorporated by reference herein). Because commercially-available NADPH contains 2-3% ethanol, an NADPH regeneration system was used. Thereby, the background ethanol concentration was reduced to approximately 1 μM. Ethane hydroxylation reactions were performed in 20 mL glass vials. A 5.0 mL reaction mixture contained 100, 200 or 500 nM purified protein in 0.1 M potassium phosphate buffer (pH 8.0) saturated with ethane and dioxygen. […] The vial was immediately topped with a septum, pressurized with 20 psi of ethane and stirred at 25° C. For determination of total turnover, the reaction was allowed to proceed for four hours. For rate determination the reaction was stopped at 0, 15 and 30 min. 50 μL of 5 mM 1-butanol was added to the reaction mixture as an internal standard. Ethanol and 1-butanol were subsequently derivatized to their corresponding alkyl nitrites. Control reactions were performed by repeating these steps without substrate and with inactivated protein, to correct for background levels of ethanol. […] Reactions with ethane and corresponding control reactions without ethane or with inactivated protein were carried out in triplicate. […]
Rates of ethanol formation were measured over 30 min using gas chromatography (GC) coupled to an electron capture detector (ECD) and are reported as nmol ethanol/min/nmol enzyme. […] Total turnover number (ttn) was measured using GC after completion of the reaction and is reported as nmol product/nmol protein. […] Initial rates of propanol and octanol formation were measured over 1 min by GC and are reported as nmol product/min/nmol protein. […] The “ee” of 2-octanol (main product) was measured by GC; the favored enantiomer is listed in parenthesis. […]

[2] = Substrate profile on C2 to C10 alkanes (TTN normalized, MTN); type: biochemical; details: highest TTN in the alkane series
Experimental: Reactions on alkanes. Reactions with alkanes from pentane to decane were carried out at 3 mL-scale using 100 mM KPi pH 8.0 buffer containing 2% ethanol (to allow alkane solubilization) and purified protein. 2.5 mL KPi buffer were added with 60 μL of 90 mM alkane solution in ethanol (final conc.=1.8 mM), 150 μL enzyme solution at 1 μM (final conc.=50 nM), and 300 μL NADPH regeneration solution (100 units/mL isocitrate dehydrogenase, 70 mg/mL isocitrate, 1.5 mg/ml NADP^+). Vials were sealed and stirred for 24 hours at 4° C. 1 mL-aliquot of the reaction was removed, added with 10 μl internal standard (25 mM 1-bromohexane in ethanol), and extracted with 200 μl chloroform (30 sec vortexing, 1 min centrifugation at 10000 g). The organic phase was removed and analyzed by gas chromatography. Reactions with ethane, propane, and butane were carried out as described for longer alkanes with the only difference that alkane-saturated KPi buffer was used. […] Propane and butane reactions were analyzed by direct injection of reaction solution on the GC using 1-pentanol as internal standard. Ethane reaction products were functionalized (see below) and analyzed by GC using 1-butanol as internal standard. […]
TTNs for each variant-substrate pair were determined using standardized reaction conditions (identical enzyme and substrate concentration, incubation time, cofactor regeneration system) (Table 18). […]

Molecule | ethanol produced ([1]; 200 nM of mutant, typical reaction with ethane) | Ethane ttn ([1]; after completion of the reaction) | increase in total turnover of ethane to ethanol ([1]; compared to 53-5H) | Ethane Rate ([1]; ethanol formation over 30 min, GC-ECD, dash = no activity) | MTN (Maximal Turnover Number) [2]
B1 | over 50 μM | 250 nmol product/nmol protein | five-fold | 0.4 nmol ethanol/min/nmol enzyme | –
B2 | – | – | – | – | 150
